Assay: yeast display, Sf9 membrane polyspecificity reagent, FACS + sequencing; frameworks hold sequencing errors
Method in brief: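 Genes from sorted yeast were amplified by colony PCR, read by MiSeq 2 × 250 sequencing and filtered on CDR length. These cells carried a synthetic nanobody library in Saccharomyces cerevisiae BJ5465 and were sorted by FACS into low and high (top ~1%) gates on anti-HA and streptavidin fluorescence. Polyreactivity is labelled according to the gate of origin.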

Sequence	polyreactivity (PSR sort gate)
QVQLVESGGGLVQAGGSHRLSCAASGSIFALYAMGWYREAPGKEREFVAAISWNGGRTYYADSVKGRFTISRDNAKNTVYLQMNSLKPEDTAVYYCAARSWYAYDYWGQGTQVTVSS	high polyreactivity
QVQLVESGGGLVQAGGSLRLSCAASGSTFHFYAMGWYRQAPGKESELVAAITWSGGTTYYADSVKGRFTISRDNAKNTVYFQMNSLKPEDTGVYYCATGQSVIYRYEYWGQGTQVTVSS	low polyreactivity
QVQLVESGGGLVQAGGSLRLSCAASGRTFPAYTMGWYRQAPGKERELVAAINWSGGSTYYADSVKGRFTISRDNAKNTVYLQMNSLKPEDTAVYYCARTSHYYGFRSYGTLDYWGQGTQVTVSS	high polyreactivity
QVQLVESGGGLVQAGGSLRLSCAASGSTFFRNAMGWYRQAPGKDRELVAAISSSGGRTYYADSVKGRFTISRDNAKNTVYLQMNSLKPVETAVYYCAVVSSHYKGPGRNGYDYWAQGTQVTVSS	high polyreactivity
QVQLVESGGGLVQAGGSLRLSCAASGRTLASNAMGWYRQAPGKERELVAAINRGGSTYYADSVKGRFTISRDNAKNTVYLQMNSLKPEETAVYYCAVDRYRYPFDYWGQGTQVTVSS	low polyreactivity
QVQLVESGGALVQAGGSLRLSCAASGSIFWPNAMGWYRPAPGKERELVAAISWGTGSTYYADSVKGRFTISRDNAKNTVYLQMNSLKPEDTAVYYCAADGAYLDPYYDYWGQGTQVTVSS	low polyreactivity
QVQLVESGGGLVQAGGSLRLSCAASGRIFVRYAMGWSRQAPGKEREMVAAISSSGGRTYYADSVKGRFTISRDNAKNTVYLQMNSLNAEDTAVYYCAARWVQYGVRYDYWGQGTQVTVSS	high polyreactivity
QVHHEETGGGIVQAGGSLRLSCAASGRIFDYIAMGWYRQAPGKERELVAAISQSGGSTYYADSVKGRFTISRDNAKNTVYLQMNSLKPEDTAVYYCAAFISRSRNEYWGQGTLVTVSS	high polyreactivity
QVQLVESGGGLVQAGGSLRLSCAASGSIFYRYARGWYRQAPGKERELVAAISYNGGRTYYADSVKGRFTISRDNAKNTVYLQMNSLKPEDTAVYYCNAAGRDDAYDYWGQGTQVTVSS	high polyreactivity
QVQLVESGGGLVQAGGSLRLSCAASGSTFVSNAMGWYRQAPGKERELVAAITTGGSTYYADSVKGRFTISRDNAKNTVYLQMNSLKPEDTAVYYCAADSVLNWFWGYEYWGQGTQVTVSS	low polyreactivity
QVQLVESGGGLVQAGGSLRLSCAASGSTFRYYAMGWYRQAPGKERELVAAITKNGGSTYYADSVKGRFTISRDNAKNTVYLQMNSLKPEDTAVYYCADQYSYSGWYYVSYYYWGQGTQVTVSS	high polyreactivity
QVQLVESGGGLVQAGGSLRLSCAASGLIFYVYARGWYRQAPGKERELVAAIRYRGGTTHYADSVKGRFTISRDNAKNTVYLQMNSLKPEDTAVYYCAADGYVYRSGRRYDYWGQGTQVTVSS	high polyreactivity
QVQLVESGGGLVQAGGSLRLSCAASGRTFYSNAMGWYRQAPGKERELVAAISRSGGTTYYADSVKGRFTISRDNAKNTVYLQMNSLKPEDTAVYYCNTLRYGTTGKYDYWGQGTQVTVSS	high polyreactivity
QVQLVETGGGLVQAGGSLRLRGAASGFTFPWYAMGWYRQAPGKERELVAAISTSGDSTYYADSVKGRFTISRDNAKNTVYLQMNSLKPEDTAVYYCAARVVRGRYGYWGQGTQVTVSS	high polyreactivity
QVQLVESGGGLVQAGGSLRLSCAASGSNVYIYAMGWYRQAPGKERELVASINSGGSTNYADSVKGRFTISRDNAKNTVYLQMNSLKPEDTAVYYCNADVYDTYSPLGYYYWGQGTQVTVSS	low polyreactivity
QVQLVESGGGLVQAGGSLRLSCAASGLTFSRNAMGWYRRAAGKERELVAAITKSGARTYYADSVKGRFTISRDNAKNTVYLQMNSLKPEDTAVYYCAADALNTYYYWGQGTQVTVSS	high polyreactivity
QVQLVESGGGLVQAGGSLRLSCAASGYIFLAYAKGWYRQAPGKERELVADNTYADSVKGRFTISRDNAKNTVYLKMNSMKPEDTAVYYCNADEVYDEYSYDYWGHGTQVTVSS	low polyreactivity
QVQLGDSGGGLVHAGGSLSLSCAASGSTFAYYSMGWYRQAPGKERELVAGFTWTGGSTYYADSVKGRFTISRDNAKNTVYFQKNSLKPEDTAVYFCAVTYPYGYEYDHWGQGSQVTVSS	low polyreactivity
QVQLVESGGGLVQAGGSLSLSCASTGFIITQNAMGWYRQAHGKERYLVAAISWRAGSTYYADSVKGRFTISRDNAKNTVYLQMNSLKPEDTAVYYCATRQTKYSNYRGDYWGQGTQVTVSS	high polyreactivity
QVQLVESGGGLVQAGGSLRLICAASGSTIVWNAMGWYRQAPGKERELVATITLSTGSTYYADSVKGRFTISRDNAKNTVYLQMNSLKPEDTAVYYCNTEIYVDIISVYGYWGQGTQVTVSS	low polyreactivity
QVQLVESAAGLVQAGGSLSLSCAASGFIFWRYAMGWYRQAPGKERELVAAISVSGTRTYYADSVKGRFTISRDNAKNTVYLQMNSLKPEDTAVYYCNAASRSFSSDRAFDYWGQGTQVTVSS	high polyreactivity
QVQLVESGGGLVQAGGSLRLSCAASGSTFRNYAMGWYRQAPGKERELVAAISGSGGRTNYADSVKGRFTISRDNAKNTVYLQMNSLKPEDTAVYYCNARFPDWALSEISHSTTYGYWGQGTQVTVSS	low polyreactivity

Sequence	polyreactivity (PSR sort gate)
QVQLVESGGGLVQAGGSLRLSCAASGGIFVDNAMGWYRQAPGKERELVATITSTGSTNYADSVKGRFTISRDNAKNTVYLQMNSLKPEDTAVYYCNADGILQDYDYWGQGTQVTVSS	low polyreactivity
QVQLVESGGALVQAGGSLRLSCAASGITFLYYAMGWYRQAPGKERELVAAISGGGASTYYADSVKGRFTISRDNAKNTVYLQMNSLKPEDTAVYYCAAGYRDFFRARFGYWGQGTQVTVSS	high polyreactivity
QVQLVESGGGLVQAGGSLRLSCAASGRTFGVYALGWYRQAPRKERELVAGIRWRGGSTYYADSVKGRFTISRDNAKNTVYLQMNSLKPEDTAVYYCAADVYLVKYDYWGQGTQVTVSS	low polyreactivity
QVQLVESGGGLVQAGGSLRLSCAASGSILQQYTMGWYRPAPGKERELVAAISSSGSSTYYADSVKGRFTISRDNAKNTVYLQMNSLKPEDTAVYYCNADYHDKFYWGQGTQVTVSS	low polyreactivity
QVQLVESGGGLVQAGGSLRLSCAASGRTFTYNAMGWYRQAPGKERELDAAISWNGGRTYYADSVKGRFTISRDNAKNTVYLQMNSLKPEDTAVYYCAARSPKDSYSIQRYYWGQGTQVTVSS	high polyreactivity
QVQLVESGGGLVQAGGSLRLSCAASGGTIYLNAMGWYRQAPRKERELVAGITWGGGRTYYADSVKGRFTISRDNAKNTVYLQMNSLKPEDTAVYYCASGAWRGPYSGYYYWGQGTQVTVSS	low polyreactivity
QVQLVESGGGLVQAGGSLRLSCAASGRIFYVYAMGWYRAPGKERELVASISYIGGSTYYADSVKGRFTISRDNAKNTVYLQMNSLKPEDTAVYYCATDYYGYTVSYLVPSWPDDYWGQGTQVTVSS	low polyreactivity
QVQLVESGGGLVQAGGSLRLSCAASGNTFWDNAMGWYRQAPGKERELVAAIRWSTGSTHYADSVKGRFTISRDNAKNTVYLQMNSLKPEDTAVYYCAATDYYYYRDKYYGYDYWGQGTQVTVSS	low polyreactivity
QVQLVESGGGLVQAGGSLRLSCAASGFIFRYYAMGWYRQAPGKERELVASIDWSGGNTYYADSVKGRFTISRDNAKNTVYLQMNSLKPEDTAVYYCNRRGMDWGQVTQVTVSS	low polyreactivity
QVQLVESGGGLVQAGGSLRLSCAASGYTFSYYDMGWYRQAPGKERELVAGISKRGGSTRYADSVKGRFTISRDNAKNTVYLQMNSLKPEDTAVYYCNRLPYLHYAGRLTNYDYWGQGTQVTVSS	high polyreactivity
QVQLVDSGGGLVQAGGSLRLSCAASGSTFYLYAMGWYRQAPGKERELVAVITTDGSTTYADSVKGRFTISRDNATNTVYLEMNSLKPEDTAVYFCAAYGGNGQYYSQYDYWGQGTQVTVSS	low polyreactivity
QVQLVESGGGLVQAGGSLRLSCAASGRTFFFYAMGWYRQAPGKERELVADITWSDGTTYYAESVKGRFTISRDNAKNTVYLQMNSLKPEDTAVYYCAKVRTGQSRSVGYDYWGQGTQVTVSS	low polyreactivity
QVQLVESGGGLVQAGGSLRLSCAASGRIYYPYAMGWYRQAPGKERELVASINYRGGSTYYADSVKGRFTISRDNAKNTVYLQMNSLKPEDTAVYYCAARFYWKYWRYDYWGQGTQVTVSS	high polyreactivity
QVQLVESGGGIVQAGGSLRLSCAASGSIFITYAMGWYRPAPGKERELVAAIRDSGDRTYYADSVKGRFTISRDNAKNTVYLQMNSLKPEDTAVYYCAARIWTGRGRKLGYGYVYWGQGTQVTVSS	low polyreactivity
QQLQESGGGLVQAGGSLRLSCAASGSISGSVLMGWYRQAPGKEREFVASISLGGNTNYADSVKGRFTISRENAKNTVYLQMNCLKPEVAAVYYCAAYISLFETHPYWGQGTQVTVSS	high polyreactivity
QVQLVESGGGLVQAGGSLRLTCAASGRNFRAYAMGWYRQAPGKERELVAAISTSGGSTRYADSVKGRFTISRDNAKNTVYLQMNSLKPEDTAVYYCARYTTRTYEYNYWGQGTQVTVSS	high polyreactivity
QVQLVESGGGLVQAGGSLRLSCAASGRTFLSYMGWYRQAPGKERELVAISRSGTSTYYADSVKGRFTISRDNAKNTVYLQMNSLKPEDTAVYYCAATRRYPQYRGYDYWGQGTQVTVSS	high polyreactivity
QVQLVESGGGLVQAGGSLRLSCAASGLIFPIYAMGWYRPAPGKERELVAVITWSGGSTYYADSVKGRFTISRDNAKNTVYLQMNSLKPEDTAVYYCSVEWAYPYWYTYYLEDYWGQGTQVTVSS	low polyreactivity
QVQLVESGGGLVQAGGSLRLICAASGSTFEQYAMGWYRQAPGKERELVAAINRGGSTYYADSVKGRFTISRDNAKNTVYLQMNSLKPEDTAVYYCAVYAFVRYRSRYGYWGQGTQVTVSS	high polyreactivity
QVQLVESGGGLVQAGGSLRLSCAASGRILYIYAMGWYRQAPGKERELVAAIRSSGGSTYYADSVKGRFTISRDNAKNTVYFQMNSLKPEDTAVYYCAAPDFPKYYPTAYLQADEYWGQGTQVTVSS	high polyreactivity
QVQLVESGGGLVQAGGSLRLSCAASGSTFRRNAMGWDRQAPGKERELVATISPGARTNYADSVKGRFTISRDNAKNTVYLQMNSLKPEDTAVYYCNAEYTLLYPLYDYWGQGTQVTVSS	low polyreactivity

Source: the nanobody polyreactivity screen of Harvey et al. (2022)
